Test results published in patent US7642400B2, “Protein kinase C iota” (Mayo Foundation for Medical Education and Research, priority 2004, dated 2010).
Each block holds one molecule with its values, some of them ahead of it.

Tests used:
[1] = molecular target: T1, interaction of PKCι polypeptides with PAR6 polypeptides (Homo sapiens, UniProt P41743); experiment: Secondary screen: PYN bound to plate-immobilised biotin-tagged PAR6; assay type: binding; conditions: increasing amounts, e.g. 0, 0.1, 1, 10, 100, and 100 μM
T1 construct: amino acids 1-113 or a full-length PKCι polypeptide; 6xHis; made in house
T1 sequence (P41743 10-122): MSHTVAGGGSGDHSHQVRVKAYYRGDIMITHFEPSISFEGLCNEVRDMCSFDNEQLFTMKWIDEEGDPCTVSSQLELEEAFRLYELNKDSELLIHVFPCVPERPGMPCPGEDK
Experimental: Multiple test compounds that were classified as hits in the primary screen as well as additional related compounds were evaluated in a secondary screen designed as follows. Briefly, a 96-well microtiter plate coated with streptavidin (Nunc #436014) was incubated for 2-4 hours at room temperature with 100 μl of a 20-30 μg/ml solution of biotin-tagged PAR6 (whole polypeptide) in phosphate-buffered saline containing Tween-20 (PBST). Plates were washed twice with PBST, then once with incubation buffer (50 mM Tris, pH 8.0; 135 mM NaCl; 10% glycerol; 0.002% EDTA). Incubation buffer (50 μl) was added to each well. The compounds to be tested were added (10 μl) followed by PYN (50 μl) diluted in incubation buffer to an approximate concentration of 4000-5000 relative fluorescent units per 50 μl. Plates were incubated overnight at 4° C. Plates were washed twice with incubation buffer, after which 50 μl incubation buffer was added to retain moisture in the wells. The amount of PYN bound on the plates was determined by measuring yellow fluorescence (532/526) in a Typhoon imager. Fluorescence was quantitated by Softmax Pro software.
A dose-response analysis was performed using the secondary screening assay and increasing amounts (e.g., 0, 0.1, 1, 10, 100, and […]) of gossypol, hexestrol, thimerosal, ebselen, ATG, ATM, ellagic acid, cisplatin, apomorphine, or phenylmercuric acetate.

[2] = molecular target: T1, interaction of PKCι polypeptides with PAR6 polypeptides; experiment: Primary screen: FRET assay of PKCι113-YFP-N1 (PYN) and PAR6125-CFP-C1; conditions: FIG. 18; less binding as concentration increased
Experimental: A primary screen was performed as follows to identify test compound having the potential to inhibit the interaction of PKCι polypeptides with PAR6 polypeptides. Bacterially expressed PKCι113-YFP-N1 (PYN) was isolated from the soluble fraction of bacterial lysates by affinity purification according to the manufacturer's protocol (B-PER 6×His Purification Kit; Pierce). The purified polypeptide was dialyzed against Tris buffer (50 mM Tris, pH 8.0; 135 mM NaCl; 10% glycerol; 0.002% EDTA) containing 2 M urea. PAR6125-CFP-C1 recombinant polypeptide was isolated from the inclusion body pellets of bacterial lysates using the B-PER reagent (Pierce) according to the manufacturer's protocol. […] Yields were measured by fluorescence in a SpectraMax Gemini microplate reader (Molecular Devices).
To perform the assay, PYN was diluted to 4000 relative fluorescent units/50 μl in Tris buffer plus 1 M urea, and PAR6125-CFP-C1 was diluted to 400 relative fluorescent units/50 μl Tris buffer plus 1 M urea. […] Fluorescence was measured in a SpectraMax Gemini plate reader. Cyan fluorescence was measured at excitation 395 nm, emission 475 nm, and cutoff of 455 nm. Yellow fluorescence was measured at excitation 395 nm, emission 529, and cutoff of 515=n. […]

A549 cells [3] = experiment: Soft agar growth assay (anchorage-independent growth) of A549 cells; assay type: cell-based, human; conditions: A549 cells expressing PKCι(1-113) versus A549/LZRS; FIG. 12G
Experimental: (§1) Anchorage-independent growth was assayed by the ability of cells to form colonies in soft agar. The bottom agar consisted of growth medium containing 10% FBS and 0.75% agarose in 60-mm tissue culture dishes. Nine hundred cells were resuspended in growth medium containing 10% FBS and 0.75% agarose, and plated on top of the bottom agar. The cells were incubated at 37° C. in 5% CO2. Cell colonies were visualized and quantified under a dissecting microscope (Olympus) after 4-6 weeks in culture.
as §1, with “Soft Agar Growth Assays: Anchorage-independent growth” for “Anchorage-independent growth”, “and 0.75% agarose and plated” for “and 0.75% agarose, and plated”, “bottom agar. ATG was added at the indicated concentration to both bottom and top agar solutions. The cells” for “bottom agar. The cells”

A549 cells [4] = experiment: Cell invasion through Matrigel-coated chambers, A549 transfectants; assay type: cell-based, human; conditions: A549 cells expressing PKCι(1-113) versus A549/LZRS; FIG. 12F
Experimental: Cell Invasion and Soft Agar Growth Assays: A549 and H1299 transfectants were assayed for cell invasion using Matrigel-coated Transwell cell culture chambers (6,5-mm diameter, 8-μm pore size; BD Biosciences). A549 and H1299 cell transfectants in logarithmic growth phase were harvested with trypsin, the trypsin neutralized with serum-containing medium, and the cells pelleted and resuspended in serum-free growth medium. 2.5×10^4 cells were placed into the upper chamber of the Transwell insert, and growth medium containing 10% FBS was added to the lower chamber. After 22 hours at 37° C. in 5% CO2, non-invasive cells in the upper chambers were removed and invasive cells were fixed in 100% methanol and stained with 0.5% crystal violet (Sigma) in 2% ethanol. Cells which had invaded through the Matrigel-coated filter were counted on a microscope (X40, Olympus) using a calibrated ocular grid.

RIE/Ras cells = experiment: Soft agar colony formation of RIE/Ras cells; assay type: cell-based, rat; conditions: RIE/Ras/PKCι(1-113) versus RIE/Ras cells; FIG. 9
From the text: To assess anchorage-independent growth, RIE cell transfectants were suspended in DMEM supplemented with 10% FBS, 1.5% agarose, and a 1% insulin, transferrin and selenium solution (Sigma-Aldrich), and plated (300 cells/60 mm dish) on a layer of 1.5% agar containing the same medium. Cell colonies were fixed with 20% methanol and stained with Giemsa after 7-14 days in culture and quantified under a dissecting microscope.

[5] = tested on: Rac1 activity in A549 cells; experiment: Rac1 activity assay (affinity isolation of GTP-bound Rac1) in A549 cells; assay type: cell-based, human; conditions: A549 cells treated with PSI or stably expressing PKCι(1-113); FIG. 12E
Experimental: Rac 1 Activity Assays: Rac1 activity in A549 and H1299 cell transfectants was assessed by affinity isolation of GTP-bound Rac1 using binding domains of PAK as described previously (Sander et al., J. Cell Biol., 143(5):1385-98 (1998)). Briefly, cells were lysed in lysis buffer (50 mM Tris-HCl pH 7.5, 150 mM NaCl, 20 mM MgCl2, 5 mM EGTA, 10% glycerol, 1% Triton X-100, 1% NP-40, 25 mM NaF, 1 mM phenylmethylsulfonyl fluoride, 1 mM sodium orthovanadate, 10 μg/ml leupeptin, 10 μg/ml aprotinin) at 4° C. for 5 min. Cellular debris was removed by centrifugation at 20,000×g for 5 min, and supernatants were transferred to new tubes containing 20 μl of GST-p21-binding domain of PAK1 (PAK1-PBD) coupled to agarose beads (Upstate). An aliquot of each supernatant was reserved to determine total Rac1 and actin expression by immunoblot analysis. Following a 30-minute incubation at 4° C., the agarose beads were collected by centrifugation and washed three times in wash buffer (50 mM Tris-HCl pH 7.5, 150 mM NaCl, 20 mM MgCl2, 5 mM EGTA, 10% glycerol, 1% Triton X-100, 1% NP-40, 25 mM NaF, 1 mM phenylmethylsulfonyl fluoride, 1 mM sodium orthovanadate, 10 μg/ml leupeptin, 10 μg/ml aprotinin). Bound polypeptides were solubilized by the addition of 30 μl of SDS sample buffer, resolved by SDS-PAGE, and subjected to immunoblot analysis for Rac1. An equivalent aliquot of the total cell lysate was subjected to immunoblot analysis to determine total Rac1 expression.
Rac 1 Activity Assays: A549 cells were incubated with the indicated concentration of ATG for one hour prior to analysis. Rac1 activity in A549 cells was assessed by affinity isolation of GTP-bound Rac1 using binding domains of PAK as described elsewhere (Sander et al., J. Cell Biol., 143:1385-98 (1998)). Briefly, cells were lysed in lysis buffer (50 mM Tris-HCl pH 7.5, 150 mM NaCl, 20 mM MgCl2, 5 mM EGTA, 10% glycerol, 1% Triton X-100, 1% NP-40, 25 mM NaF, 1 mM phenylmethylsulfonyl fluoride, 1 mM sodium orthovanadate, 10 μg/ml leupeptin, and 10 μg/ml aprotinin) at 4° C. for 5 min. […]

dose-response analysis using the secondary screening assay [1]: dose-dependent response was detected | dose-response in the FRET assay: relative binding of PKCι and PAR6 polypeptides [2]: dose-dependent effect
Molecule: O=C(O)CC([S-])C(=O)O.[Au+] (stereo not drawn) [ATM, aurothiomaleate]

B1: PKCι(1-113): first 113 amino acids of PKCι, encompassing the PB1 domain, expressed in cells from a plasmid (protein)
chain: MPTQRDSSTMSHTVAGGGSGDHSHQVRVKAYYRGDIMITHFEPSISFEGLCNEVRDMCSFDNEQLFTMKWIDEEGDPCTVSSQLELEEAFRLYELNKDSELLIHVFPCVPERP
anchorage-independent growth in soft agar (A549 cells [3]): inhibits | A549 cell invasion (A549 cells [4]): inhibits | soft agar colony formation (RIE/Ras cells): significantly less soft agar colony formation | Rac1 activity [5]: inhibits Rac1 activity
